Measurements as given in paper PMC3060798, “Molecular Determinants of S100B Oligomer Formation” (PLoS ONE, 2011).
Where “and” joins values, the source holds several entries; their conditions need not be identical. Equal values may be shown once.

B1: S100B dimer (highly pure, trigger-free) (natural protein, rat, UniProt P04631 1-92, looked up)
chain: MSELEKAMVALIDVFHQYSGREGDKHKLKKSELKELINNELSHFLEEIKEQEVVDKVMETLDEDGDGECDFQEFMAFVSMVTTACHEFFEHE
notes: S100B, rat; plasmid with the rat S100B gene (gift from D. Weber); monomer 10.7 kDa, dimer 21.5 kDa as printed; Homodimer; No tag is mentioned; In rows of m1 with m1 the step meant (monomers to dimer, or dimers to tetramer and higher) is told in the assay's format; also called trigger-free S100B; trigger-free S100B dimer
B2: S100B tetramer (natural protein, rat, UniProt P04631 1-92, looked up)
chain: B1 chain
notes: S100B, rat; same chain as m1, isolated as tetramer (43.0 kDa expected); Same polypeptide as m1 in another oligomeric state; free of imidazol after gel filtration; also called tetramer fraction; source: E. coli BL21 De3 PLysS star; trigger-free dimer triggered with 90 mM imidazol, tetramer fraction collected from Superdex 200 gel filtration
B3: S100B hexamer (natural protein, rat, UniProt P04631 1-92, looked up)
chain: B1 chain
notes: S100B, rat; same chain as m1, isolated as hexamer (64.5 kDa expected); Same polypeptide as m1 in another oligomeric state; free of imidazol after gel filtration; also called hexamer fraction; source: E. coli BL21 De3 PLysS star; trigger-free dimer triggered with 90 mM imidazol, hexamer fraction collected from Superdex 200 gel filtration

How the values were obtained:
[1] = target: the molecule itself; test: SEC; hexamer, tetramer and dimer fractions collected after imidazol triggering, reinjected on Superdex 200 and analysed repeatedly during storage for up to 6 months in solution at 4 °C
[2] = target: T1, p53 target peptide (Met followed by residues 367-388 of p53, Phe 385 changed to Trp) (Phe 385 changed to Trp (stands in the printed letters)); test: other fluorescence titration; p53 peptide (0.07-1.3 µM) titrated with S100B dimer, tetramer or hexamer stock; 10 mM BisTris, 5 mM CaCl2, pH 7, 25 °C; Trp emission at 330 nm, excitation 295 nm; 1:1 binding model fitted against total S100B monomer concentration; details: both partners purified
T1 construct: added Met before the p53 residues; p53, C-terminal regulatory domain, residues 367-388 with Phe 385 changed to Trp; the peptide was cleaved off; also called p53 peptide; target peptide from p53; source: E. coli ER2566, purified (DEAE cellulose, chitin column, cleaved off from the intein with 50 mM DTT, G25 gel filtration)
T1 peptide: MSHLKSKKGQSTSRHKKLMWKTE

[3] = target: the molecule itself; test: SEC; analytical gel filtration on Superdex 200; step: dimers to tetramer, hexamer and higher oligomers; 20 mg/ml trigger-free S100B dimer with imidazol (20-900 mM, optimum 90 mM), 1 mM EDTA, 1 mM DTT, 0.25 M NaCl, pH 7.0, lyophilized, dissolved, incubated 24 h at 4 °C
[4] = target: the molecule itself; test: dynamic light scattering; ZetaSizer Nano-S; fractions collected directly from the Superdex200 column in 25 mM sodium carbonate with 25 mM HCl, pH 7.3

Binder	stoichiometry N [1]	stoichiometry N [2]	stoichiometry N [3]	stoichiometry N [4]
B1	2	2 peptides per dimer	4 and 6	–
B2	–	4 peptides per tetramer	–	4
B3	–	6 peptides per hexamer	–	6
